In PMC3166367:

Tests used:
[1] = target: dimeric (β15-44)2 fragment (β15-42 with Cys43 and Gly44 added, dimerized through Cys43); assay: ELISA
[2] = target: VE-cad(3) fragment (residues Phe210-Phe325), third domain of the extracellular portion of VE-cadherin; assay: SPR
[3] = target: VE-cadherin (Homo sapiens) (UniProt P33151); assay: SPR; conditions: cited from earlier work
VE-cadherin (Homo sapiens), sequence (P33151 48-599): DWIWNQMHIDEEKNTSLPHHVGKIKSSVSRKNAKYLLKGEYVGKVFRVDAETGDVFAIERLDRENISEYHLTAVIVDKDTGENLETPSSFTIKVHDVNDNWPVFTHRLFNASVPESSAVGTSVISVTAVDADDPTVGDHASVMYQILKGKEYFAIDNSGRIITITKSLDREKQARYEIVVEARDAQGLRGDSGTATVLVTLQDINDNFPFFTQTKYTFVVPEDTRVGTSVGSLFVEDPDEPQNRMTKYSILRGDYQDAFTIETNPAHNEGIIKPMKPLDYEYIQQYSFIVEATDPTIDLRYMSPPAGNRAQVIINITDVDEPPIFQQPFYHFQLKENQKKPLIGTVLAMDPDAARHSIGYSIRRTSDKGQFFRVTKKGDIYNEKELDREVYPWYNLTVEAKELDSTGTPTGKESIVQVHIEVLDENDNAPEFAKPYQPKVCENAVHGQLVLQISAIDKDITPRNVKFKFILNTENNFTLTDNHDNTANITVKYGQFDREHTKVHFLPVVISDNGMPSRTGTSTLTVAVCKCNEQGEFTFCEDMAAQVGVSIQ

VE-cad(3) fragment (residues Phe210-Phe325), third domain of the extracellular portion of VE-cadherin (domain or fragment)
Kd [1]: 146 nM

dimeric (β15-44)2 fragment (β15-42 with Cys43 and Gly44 added, dimerized through Cys43) (peptide)
Kd [2]: 715 nM

fibrin fragment (β15-66)2 15-66 (from UniProt P02675)
Kd [3]: 80 nM
